Experimental data published in patent publication US20160158369A1, “PHARMACEUTICAL COMPOSITION FOR RESPIRATORY ADMINISTRATION” (SEIKAGAKU CORPORATION, priority 2013, published 2016).

What was measured:
[1] = Blood kinetics (plasma drug concentration) in normal rat after intratracheal administration; assay type: in vivo
Procedure: The resultant was extracted with chloroform and methanol, and the extracted solution was measured by LC-MS/MS.

[2] = test system: rat antigen-induced asthma model; experiment: Rat antigen-induced asthma model, eosinophils in bronchoalveolar lavage fluid; assay type: in vivo
Procedure: Intraperitoneal administration of 1 mL of aluminum hydroxide gel containing ovalbumin (1 mg/mL) was performed 3 times with one day interval. 14 Days after performing the first sensitization, intraperitoneal administration of 1 mL of aluminum hydroxide gel containing ovalbumin (1 mg/mL) was performed again followed by the second sensitization. 7 Days after the second sensitization, inhalation exposure of physiological saline (10 mg/mL) containing ovalbumin was performed by using a nebulizer five times with one day interval in order to induce asthma.
The 0.6 mg/mL prednisolone suspension was orally administered by using a sonde for oral administration under no anesthesia to have prednisolone amount of 3 mg/kg.
Meanwhile, the test was performed with n=6 to 12.
24 Hours after the fifth exposure, phosphate buffered saline (2 mL) containing 0.1% bovine serum albumin heated to 37° C. was injected to a bronchus of a rat under pentobarbital anesthesia and collected thereafter. This procedure was repeated 5 times to have bronchoalveolar lavage fluid. The bronchoalveolar lavage fluid was centrifuged for 3 minutes at 200×g and room temperature. The supernatant was discarded, and the pellet was re-suspended in phosphate buffered saline (500 μL) containing 0.1% bovine serum albumin.
Subsequently, a smear sample of the suspension was prepared followed by Diff-Quik staining. According to cell fractionation, ratio of eosinophil in white blood cells was calculated. According to integration with the number of white blood cells in bronchoalveolar lavage fluid, the number of […] in bronchoalveolar lavage fluid was calculated. Meanwhile, the number of white blood cells in bronchoalveolar lavage fluid was measured by using a blood cell counting chamber. The results are shown in FIG. 4 and the following table.
Dose responsiveness of the compound va in an OVA sensitized rat model was determined in the same manner as (Test example B2).
There were three doses for determination, i.e., 0.35 mg/kg, 3.5 mg/kg, and 35 mg/kg, such that the budesonide amount for administration is 0.1 mg/kg, 1 mg/kg, or 10 mg/kg.

[3] = in vivo
Procedure: As a test substance, the compound is was used, and it was used after being dissolved in phosphate buffered saline such that the pharmaceutical concentration is 3 mg/mL.
For the test, a BN/CrlCrlj rat (Charles River Laboratories International, Inc., 5-week old) was used. It was placed on its back and fixed under general anesthesia, and by using a sonde for intratracheal administration (MicroSprayer (registered trademark) Aerosolizer Model IA-1B, manufactured by Penn-Century), intratracheal administration was performed with volume of 100 μL. As general anesthesia, inhalation of isoflurane (concentration of 3.0% and flow rate of 2.0 L/min) was employed.
Weight of the pulmonary tissue was measured and, after being added with an aqueous solution of ammonium formic acid (pH 6.0):methanol (3:2, v/v) at ratio of 40× (1 g: 40 mL), it was homogenated for about 1 minute under ice cooling by using a homogenizer. […] Meanwhile, the measurement was made with n=3 for each evaluation time point.
Each parameter of pharmacokinetics was calculated from a change in average content in pulmonary tissue. If there was an animal showing the measurement value of less than the lower limit of quantification, the average content in pulmonary tissue was calculated by substituting the value of 0 (zero) for it. The time t (hr) for calculating AUC0-t was the final time point at which the quantification can be made. Meanwhile, for calculation of the parameters of pharmacokinetics, non-compartmental analysis model analysis by WinNonlin Professional (registered trademark) Ver 5.2.1 was used. […] The results are shown in FIG. 2 and the following table.
The compounds vb obtained from Example 5 was evaluated in the same manner as the method described in (Test example B1) in terms of the persistent property of the pharmaceutical in a pulmonary tissue of a normal rat.
As a comparative control group, budesonide alone in the same amount as the compound vb, and a mixture of budesonide and chondroitin sulfate in the same amount as the compound vb were administered. Meanwhile, in the present measurement system, the lower detection limit of budesonide was 1 ng/mL. Meanwhile, the evaluation time points include three points, i.e., Hour 4, 24, and 72.

[4] = Drug dissociation test: polysaccharide derivative in buffer solution, 36°C, 1 week, HPLC; assay type: physicochemical
Procedure: In the examples relating to drug dissociation test, the drug dissociation ratio was evaluated as described below.
Sodium dihydrogen phosphate dihydrate (780 mg (5.0 mmol)) was dissolved in 500 mL of distilled water to give a liquid A. Separately, disodium hydrogen phosphate dodecahydrate (1.79 g (5.0 mmol)) was dissolved in 500 mL of distilled water to give a liquid B. By mixing the liquid A and liquid B at ratio of 2:3, a phosphate buffer solution of pH 7.5 was prepared.
0.62 g (10 mmol) of boric acid and 0.75 g (10 mmol) of potassium chloride were weighed and dissolved in 500 mL of distilled water to give a liquid C. Separately, by diluting 0.1 N sodium hydroxide solution with distilled water (×10 dilution), a liquid D was prepared.
50 mL of the liquid C and 7 mL of the liquid D were added to a 100 mL mess flask, and according to dilution to 100 mL with distilled water, a borate buffer solution of pH 8.0 was prepared. Furthermore, 50 mL of the liquid C and 40 mL of the liquid D were added to a 100 mL mess flask, and according to mess-up to 100 mL with distilled water, a borate buffer solution of pH 9.0 was prepared.
Each polysaccharide derivative obtained from above was dissolved in a buffer solution at each pH so as to have a concentration of 5 mg/10 mL, and heated for 1 week in an incubator at 36° C. Then, the drug dissociation ratio during the incubation was evaluated every 24 hours by liquid chromatography (HPLC).
The evaluation was performed by measuring the ratio between the drug amount remained in a polysaccharide derivative and the dissociated drug amount according to use of a size exclusion chromatography column (manufactured by TOSOH, TSKgel α-6000, 7.8 mmI.D.×30 cm).
Detailed conditions for the liquid chromatography are as follows.
Analysis time: 40 minutes
Solution for elution: acetonitrile (for HPLC):physiological saline=1:2
Detector: UV detector (240 nm)

[5] = test system: mouse antigen-induced airway hypersensitivity model; experiment: Mouse antigen-induced airway hypersensitivity model (AHR, Penh, PC100); assay type: in vivo; conditions: single intratracheal administration 40 μL, 1 week before the evaluation
Procedure: For the evaluation, BALB/cCrSlc (Japan SLC, Inc., 11-week old) was used. […] Intratracheal administration (volume: 40 μL) of the budesonide suspension, mixture of budesonide and chondroitin sulfate, and an aqueous solution of the compound va was performed by using a glass microsyringe (Ito Micro Syringe, manufactured by ITO SEISAKUSHO CO., LTD.) after fixing the mouse on its back under general anesthesia. […] The administration was performed only once, and it was performed 6 days after the second sensitization. Meanwhile, the test was performed with n=6. Airway hyper responsiveness (AHR) evaluation was performed as described below. On Day 13 after the second sensitization, the mouse was forced to inhale metacholine (hereinbelow, MCh) of 0, 5, 10 and 20 mM, and the airway resistance parameter (Penh) at 3 minutes after the inhalation of metacholine with different concentrations was measured by a device for measuring unrestrained respiratory function (manufactured by Buxco Research System). AUC value of the Penh value was measured, and a graph of MCh concentration vs. AUC was established.

[6] = test system: mouse model having antigen-induced rhinitis; experiment: Mouse model having antigen-induced rhinitis, cough number; assay type: in vivo; conditions: single intranasal administration 20 μL
Procedure: As a negative control, phosphate buffered saline was used. As a comparative control, 4 mg/mL budesonide suspension was used. […] From Day 1 after the final nasal cavity sensitization—induction, 20 μL of ovalbumin physiological saline (40 mg/mL) was intranasally administered with 24 hour interval to induce a rhinitis reaction. The induction of the rhinitis reaction was performed 8 times in total for 8 days. […] The phosphate buffered saline, aqueous solution of the compound va, and budesonide suspension were administered only once on the day of inducing initial rhinitis reaction, and 1 hour before administering physiological saline containing ovalbumin. Meanwhile, the test was basically performed with n=6. From the first day to Day 7 after inducing initial rhinitis reaction, number of coughs during 10 minutes after the administration of ovalbumin-containing physiological saline was measured.

[7] = Solubility in water
[8] = test system: OVA sensitized rat model; experiment: Dose responsiveness of budesonide alone in OVA sensitized rat model; assay type: in vivo; conditions: doses 0.01, 0.1, 1, 10 mg/kg to bronchus 1 hour before 4th and 5th OVA exposure
Procedure: Dose responsiveness of budesonide alone in an OVA sensitized rat model was determined.
There were four doses for determination, i.e., 0.01 mg/kg, 0.1 mg/kg, 1 mg/kg, and 10 mg/kg.
As a test system, a male BN rat was used. For OVA sensitization, 1 mL of Alum containing 1 mg/mL OVA was administered intraperitoneally. After the sensitization, physiological saline containing 10 mg/mL OVA was used for inhalation exposure, 5 times every 24 hours, by using a nebulizer. The test substance was administered to a bronchus 1 hour before the 4th and 5th inhalation exposure of OVA.
On Hour 24 after the final exposure, 2 mL of PBS containing 0.1% BSA (heated to 37° C.) was administered under pentobarbital anesthesia to a bronchus followed by recovery. This procedure was repeated 5 times to give bronchoalveolar lavage fluid (BALF).
BALF was centrifuged for 3 minutes at 200×g and room temperature. The supernatant was discarded, and the pellet was re-suspended in PBS (500 μL, heated to 37° C.) containing 0.1% BSA. Subsequently, a smear sample of the BALF was prepared followed by Diff-Quik staining. According to cell fractionation, ratio of eosinophil in white blood cells was calculated. According to integration with the number of white blood cells in BALF, the number of […] in BALF was calculated (number of white blood cells was measured by using blood cell counting chamber).

[9] = BN/CrlCrlj, rat, plasma, inhaled or intranasal, 0.3 mg/animal

Q: With `C[C@H]1C[C@H]2[C@@H]3CCC4=CC(=O)C=C[C@]4(C)[C@@]3(F)[C@@H](O)C[C@]2(C)[C@@]1(O)C(=O)CO` [Betamethasone, betamethasone] as the compound, how does the Cmax [1, 9] read?
A: 1010 ng/mL

Q: What about the Tmax [1, 9] of the same compound?
A: 0.5 h

Q: What about the “course of plasma concentration (in words)” value ([1]; betamethasone in plasma, normal rat, intratracheal, lower limit of quantification 5 ng/mL) of the same compound?
A: after 24 hours, it was lower than the lower limit for quantification

Q: And the “number of eosinophils in bronchoalveolar lavage fluid, % of control” value ([2]; single intratracheal administration 100 μL, 7 days before the evaluation time point, average value)?
A: 90.0 % of control

Q: And the Tmax ([3]; BN/CrlCrlj, rat, in vivo, inhaled or intranasal)?
A: 4 h

Q: And the “time after administration until which exposure of betamethasone was observed in pulmonary tissue” value ([3]; normal rat, intratracheal, final evaluation time point […], lower limit for quantification 10 ng/g)?
A: 48 h

Q: With “Chondroitin Sulfate Introduced with 21-β-Alanyl-Budesonide (25 kDa) [Compound va]” as the compound, how does the “Dissociation ratio (%/day)” value ([4]; pH 7.4, 36°C) read?
A: 0.8 %/day

Q: And the drug dissociation ratio ([4]; pH 7.4, 36°C, day 0)?
A: 0.0%

Q: What about the drug dissociation ratio ([4]; pH 7.4, 36°C, day 1) of the same compound?
A: 0.4%

Q: And the drug dissociation ratio ([4]; pH 7.4, 36°C, day 2)?
A: 1.0%

Q: What about the drug dissociation ratio ([4]; pH 7.4, 36°C, day 3) of the same compound?
A: 1.8%

Q: And the drug dissociation ratio ([4]; pH 7.4, 36°C, day 4)?
A: 3.1%

Q: What about the drug dissociation ratio ([4]; pH 7.4, 36°C, day 5) of the same compound?
A: 3.8%

Q: What about the drug dissociation ratio ([4]; pH 7.4, 36°C, day 6) of the same compound?
A: 4.4%

Q: What about the drug dissociation ratio ([4]; pH 7.4, 36°C, day 7) of the same compound?
A: 5.3%

Q: What about the “Dissociation ratio (%/day)” value ([4]; pH 8.0, 36°C) of the same compound?
A: 2.5 %/day

Q: And the drug dissociation ratio ([4]; pH 8.0, 36°C, day 0)?
A: 0.0%

Q: And the drug dissociation ratio ([4]; pH 8.0, 36°C, day 1)?
A: 2.3%

Q: What about the drug dissociation ratio ([4]; pH 8.0, 36°C, day 2) of the same compound?
A: 4.2%

Q: What about the drug dissociation ratio ([4]; pH 8.0, 36°C, day 3) of the same compound?
A: 7.7%

Q: What about the drug dissociation ratio ([4]; pH 8.0, 36°C, day 4) of the same compound?
A: 10.3%

Q: What about the drug dissociation ratio ([4]; pH 8.0, 36°C, day 5) of the same compound?
A: 12.8%

Q: And the drug dissociation ratio ([4]; pH 8.0, 36°C, day 6)?
A: 14.0%

Q: And the drug dissociation ratio ([4]; pH 8.0, 36°C, day 7)?
A: 17.5%

Q: What about the eosinophil-inhibiting activity ([2]; 0.35 mg/kg (0.1 mg/kg in budesonide amount), 1 week after the administration) of the same compound?
A: eosinophil-inhibiting activity was shown

Q: And the “dose responsiveness of eosinophil-inhibiting activity” value ([2]; 0.35, 3.5 and 35 mg/kg)?
A: observed with dose responsiveness

Q: And the “inhibition of enhanced sensitivity to MCh (airway hyper responsiveness, PC100)” value [5]?
A: inhibited to the level of the control group

Q: And the “change in average cough number Day 1 to Day 7 and total cough number during 8 days” value [6]?
A: exhibited an inhibition

Q: With `CCCC1OC2CC3C4CCC5=CC(=O)C=CC5(C)C4C(O)CC3(C)C2(C(=O)COC(=O)CCCCCCCCCCCN)O1` (stereo not drawn) [Compound xviiib, Budesonide 12-Aminododecylate] as the compound, how does the solubility in water [7] read?
A: good solubility in water

Q: With `CCCC1O[C@@H]2C[C@H]3[C@@H]4CCC5=CC(=O)C=C[C@]5(C)[C@H]4[C@@H](O)C[C@]3(C)[C@]2(C(=O)CO)O1` (stereo partly drawn) [budesonide] as the compound, how does the concentration at 4 h ([3]; BN/CrlCrlj, rat, in vivo) read?
A: 471 ng/g

Q: What about the concentration at 24 h ([3]; BN/CrlCrlj, rat, in vivo) of the same compound?
A: 0.3 ng/g

Q: What about the concentration at 72 h ([3]; BN/CrlCrlj, rat, in vivo) of the same compound?
A: 0.1 ng/g

Q: And the “administration amount at which eosinophil inhibitory activity was shown” value [8]?
A: ≥ 0.1 mg/kg
